Assay results published in the DeepSol protein solubility set.

Test: soluble on expression in E. coli; label from the status in PepcDB or PDB records

Sequence	soluble on expression in E. coli
MAHHHHHHMLRRVTCMAASVGRAAAALSVSPVMAQIPSAMRPPSKASTSAVASLLPPCCQPIYQQRRCYASRSGEEKGNADKGTQAAAAAVSTTPGTATAEAVRYFAANEQNADAAARAQGSVKQQEQLSAAAANGGDAATSGIRTIGIKLTEDDELVRAFNNFSKSVNGCTQEEFLIGAKQAYYSLAVVISAFLEHGQPLAGRTESTKMIAAAHEAAKLLDKEFKPESRCDAAATSLASKAEGDGTDDSSSSSSKTKLQESLVRNVVSTIVSLIPVSRHLAESIFKIWLLHKVKQVNLSSIASPADYVLDSKLVIFARLGKARMYFNSDNVGAEVDVTFSNDYLRKLDPASVAGSGAAGSSQMADAAGKVDEDDFDTGMIQVHTDTDANAHRTTAEEHTFVVNKATRTLTPTGSTAASTAAAAAAASTDAARRSGGNSASAGAGGASAADSAKSSGTASRIQVTCVKTTDFLRKSASAATVAATAVRDEAAAKTAAPNESSGEEEEEAHSVYIKVNGNMLPPIPASAHACALLTVDVVVPPERYAYNFEWFYKRIVGYENEYERIAAARVFASNSPKPLASFLDFFMRMVTGKPVEFMFSKAIGRMIGIPDDVSQTPPATRKLMCMYMDQSYKWVLADLVTLAPVMETKLPKA	not soluble
MGSDKIHHHHHHTEMEPKFTEPVNINGEDYYKALREYKKSDHPIVFGWYSEWTGTGTNMNNQLRGIPDSMDIVSLWGGAFNLTEAQKSDLKEVREKKGLRVLYCQHITDIGRSHTPASVENDFIVDGVQYNSKDEAMAAYWGWYGNYGDTSEEGQEKAIRKYARVIIDSINKYNYDGFDIDFEPNFGYSGNLSGNSDRMHIFLDELSKEFGPKSGTGRILMVDGEPQTLNKESGPLLDYYVVQAYYCRSDEGYSDALDGRFDRLLNKFGSIEDEATILSKTVWCEDFEKHKGDGGPEFTTRDGIVTYSLKGMAMYYRPGVDARIGGVGAYRFNLCRPVNDYFFMREVIQVLNPANH	not soluble
MKADHPEDIEDIKELIAQTENEQVEFKETTGQLERGMETLCAFLNGEGGTVLFGITDKGKIIGQEVADVTKRSIAEAINRLEPTANVHVFYIPLPDSSKKIIALHVENSRDNRPFCYKSRPYYRVESVTSAMPQAVYNQLLIIRDEAKYRWELFENPKLSLQDMDENEILKTVRLGIECGRLPENTGNNLSIILEKFGLLVNGVLNNAAAVLFANRELIEYPQCLLRLARFKGTDKMVFMDNQRVQGNLFQLLDSAMTFIFKHLSLSGTTEALEREEHLTIPYKAIREGIINSLCHRQFRTPGGSVGIAIYDDRVEIENPGTFPHGWDMERMKSEHCSEPRNPLIANVLYKRKLLENWGRGISLMTEECRKANLPEPEFKLANGFVILVFRYGTNNHTSTMQVPHKHHISTIQVQSLLNIMEYNTYSVKEMMELLELKNRSYFSKEYLKPAVETGVIEPIFPDQPKSPKQKYRLTEKGKALLEKRLEHHHHHH	soluble
MTKKKAHKPGSATIALNKRARHEYFIEEEFEAGLALQGWEVKSLRAGKANISDSYVLLRDGEAFLFGANITPMAVASTHVVCDPTRTRKLLLNQRELDSLYGRVNREGYTVVALSLYWKNAWCKVKIGVAKGKKQHDKRSDIKEREWQVDKARIMKNAHR	soluble
MRAVVVGAGLGGLLAGAFLARNGHEIIVLEKSAMIGGRFTNLPYKGFQLSTGALHMIPHGEDGPLAHLLRILGAKVEIVNSNPKGKILWEGKIFHYRESWKFLSVKEKAKALKLLAEIRMNKLPKEEIPADEWIKEKIGENEFLLSVLESFAGWADSVSLSDLTALELAKEIRAALRWGGPGLIRGGCKAVIDELERIIMENKGKILTRKEVVEINIEEKKVYTRDNEEYSFDVAISNVGVRETVKLIGRDYFDRDYLKQVDSIEPSEGIKFNLAVPGEPRIGNTIVFTPGLMINGFNEPSALDKSLAREGYTLIMAHMALKNGNVKKAIEKGWEELLEIFPEGEPLLAQVYRDGNPVNRTRAGLHIEWPLNEVLVVGDGYRPPGGIEVDGIALGVMKALEKLNLGSFSEWYLLEHHHHHH	soluble
MGSDKIHHHHHHKQTVSSESTEELDDASKVINYYHMSLAVLRHVANAKDINAVLGYMEQTGKVPEVDPIAPPEIAARDTAELLDPGDYFNPEVRQNLKQNYAGLFNVRTQFYDNFNKFLAYKKSKDTAKTAQLLDENYKLSVELSEYKQVIFDILSPLTEQAESELLADEPLKDQIMAMRKMSGTVQSIMNLYSRKHAMDGVRIDLKMAELEKELKAAEKIPAVTGYDEELKNFQSFLSTVKSFMNDMQKARSKGAYSDKEYQAMSEAYEYGLSVI	not soluble
MAYSKIRQPKLSDVIEQQLEFLILEGTLRPGEKLPPERELAKQFDVSRPSLREAIQRLEAKGLLLRRQGGGTFVQSSLWQSFSDPLVELLSDHPESQFDLLETRHALEGIAAYYAALRSTDEDKDRIRELHHAIELAQESGDLDAESEAVLQYQIAVTEAAHNVVLLHLLRCMEPMLAQNVRQNFELLYARREMLPLVSTHRTRIFEAIMAGKPEEAREASHRHLAFIEEIMLDRSREESRRERALRRLEQRKN	not soluble
MYLINQNGWIEVICGSMFSGKSEELIRRVRRTQFAKQHAIVFKPCIDNRYSEEDVVSHNGLKVKAVPVSASKDIFEHITEELDVIAIDEVQFFDGDIVEVVQVLANRGYRVIVAGLDQDFRGLPFGQVPQLMAIAEHVTKLQAVCSVCGSPASRTQRLIDGEPAAFDDPIILVGASESYEPRCRHCHAVPANKDK	not soluble
SLTTTEVVMENVTAFWEEGGTPVLKDINFKIERGQLLAVAGSTGAGKTSLLMMIMGELEPSEGKIKHSGRISFCSQFSWIMPGTIKENIIFGVSYDEYRYRSVIKACQLEEDISKFAEKDNIVLGEGGITLSGGQRARISLARAVYKDADLYLLDSPFGYLDVLTEKEIFESCVCKLMANKTRILVTSKMEHLKKADKILILHEGSSYFYGTFSELQNLQPDFSSKLGPSAQLKKKLQALKKKNAQLKWKLQALKKKLAQ	soluble
ENALIGVNDHTLVTENDGRRWVTREPAIVYFHKKYWFNIIAMIRETGVSYYCNLASPYILDPEALKYIDYDLDVKVFADGEKRLLDVDEYEQHKAQMNYP	not soluble
SPPIGNQLGALVHQRTVITEEFKVPDKMVGFIIGRGGEQISRIQAESGCKIQIASESSGIPERPCVLTGTPESIEQAKRLLGQIVDRCRNGPGFHNDIDSNSTIQEILIPASKVGLVIGRGGETIKQLQERTGVKMVMIQDGPLPTGADKPLRITGDAFKVQQAREMVLEIIREKDQADFRGVRGDFNSRMGGGSIEVSVPRFAVGIVIGRNGEMIKKIQNDAGVRIQFKPDDGISPEYYRQQVAFYGQTLGQAQAHSQEQ	soluble
MGSDKIHHHHHHMDDTTPPETPAVDDLLQRIAGAYDTLPRQLKRIASYIDEHRSSVMMDRTSDIAQRCGVHPSAVVRFAQRFGFSGFSDLQAVFKDAYTGQNPTVQSYQQRIRSLIDGEAGPMTGGAVARQFIDASRAGLDELAAGLDDDQFDAAVTMLERAENIYVVGVRRSFPVASYIVYALQHTAKRVHLVSGLGGMYREQIRSVKKGDVVIAISFAPYGKETQYCLRAARHNHAQTLVVTDSRLSPLARDASAHLLVKEGSAFAFRSLTSTICLCQALFIALAYRLELNVEEVKDIGGYDD	not soluble
MPQIQSSHSNHFDFTIDTADRTKLLMSYLVVPTTANFNNVMHGGELLNLLDKVAYVCSTRYCAKGTVTLSVDGVTFKYPIPVGNLLTFLASINYVGNTSCEVGIKVLSEDIKTREITHTNSCYFTMVAVENGKPTPMPKYEPKTEVEIRRYEGALKRKEMRTRGYLKSGKHEGVLEHHHHHH	not soluble
LDIQMTQSPSSLSASLGERVSLTCRASQEISGYLYWLQQKPDGTIKRLIYAGSTLDSGVPKRFSGSRSGSDYSLTISSLESEDFADYYCLQYASYPRTFGGGTKVEIKRTVAAPSVFIFPPSDEQLKSGTASVVCLLNNFYPREAKVQWKVDNALQSGNSQESVTEQDSKDSTYSLSSTLTLSKADYEKHKVYACEVTHQGLSSPVTKSFNRGECGAGA	soluble
IDEKPSDLLLDRIESRFNFDVPRGEGHNTVQAIKAMEEGQAKVFIGLGGNFAQATPDTERTHNAMRNCNLTVHISTKLNRSHLVTGKDALILPCLGRTEIDQQATGPQGVTVEDTFSMVHISFGQLKPRSEHLRSEPAIIAGIANATLGAKPIDWLWAIEDYDRIRDLIADTIPGFTDFNHKLKHPGGFHLVNPAAERRWNTPSGKAQFSSSELPKQLISEAILEKGQKPDLILQTMRSHDQYNTTLYGLNDRYRGVFGMREVLFINEADIRKLGFEPGDKVDMVSLWEDGVERRVSGFTLVAYDVPAGQAAAYYPETNPLVPLDSYGDRTFTPTSKFIAIKLEKSTSNKIALVETE	not soluble
MGSDKIHHHHHHMSQNVYQFIDLQRVDPPKKPLKIRKIEFVEIYEPFSEGQAKAQADRCLSCGNPYCEWKCPVHNYIPNWLKLANEGRIFEAAELSHQTNTLPEVCGRVCPQDRLCEGSCTLNDEFGAVTIGNIERYINDKAFEMGWRPDLSDVKPTGKTVAIIGAGPAGLACADVLTRNGVKAVVFDRHPEIGGLLTFGIPAFKLEKEVMTRRREIFTGMGIEFKLNTEVGRDVQLDDLLKEYDAVFLGVGTYQSMRGGLDNEDAPGVYDALPFLIANTKQIMGFGETADEPYVSMEGKRVVVLGGGDTAMDCVRTSVRQNAAHVICAYRRDEENMPGSKREVKNAREEGVEFQFNVQPLGVEVNANGKVCGVKMARTEMGQPDAKGRRRAEIVPGSEHVVPADAVVMAFGFRPHSMEWLAKHSVEMDSQGRIIAPEGSENAFQTSNPKIFAGGDIVRGSDLVVTAIAEGRKAADGILNYLEV	not soluble
MKEFSIMIQGTISSWTEDTMSLLTVEKLGHTFGDRTLFKDVSMRLLAGEHVGLVGANGVGKSTFMNIITGQLIHDQGRVEWTPGTHYGYLDQHTVLTPGRTIRDVLADAFLPLFEKEKALNEVTEKMGTATPEELEELLEQMAEIQDALEAGGFYLLYMKIEEAARGLGIDAIGLDRDVSALSGGQRTKVLLAKLLLEQPEVLLLDEPTNYLDVEHIHWLTNYLKEYPHAFLLISHDTEFMNKCVDVIFHLEFTKMTRYTATYEKFLELAEINKNQHINAYEKQREFIKKQEDFIAKNKARYSTTGRAKSRQKQLDRMELIDRPETAIKPEFSFKESRASSRFVFEGENVEIGYTHPLLPKLSMTIERGEKIAIVGCNGVGKSTLLKTILGKIKPLSGKTSLGDFLEPAYFEQEVKADNITPIDDVWNTFPGLDQHQIRAMLAKCGLKNEHISRPLSQLSGGEQAKVRLCKLMGEESNWLLFDEPTNHLDVTAKAELKKAMKAYKGTILLVCHEPDFYEDWITKVWDVEEWSQNSK	not soluble
GPGSMNIQGMALHGHMKPVTMIKFNREGDLLFSTAKEPNVSVWYTKTGERLGTYDGHSAISACDVNNYSTLLVTGGMDFKAKLWCVETGEELANIMLRTPARAVGFSHDDNLLMVSTSRKMGQKSAVQLYNLPFLPPKDGYSIHPVNTVFNPCTEFVSENDDVTFAIWGPTNDTIYYSTSDGSVAILDVETMSTVCTHKPHEETINRISFDSNYYTLITASKDKTARLLDSRDLSVVQTYTSDVPVNDASISPRGDHVIIGGGMDAQDVTTQGGQTTFEVKFYHKVHEKQLGQVRCHFGTINSVCFFPDGRGFASGAFDGLVKLHRFDDKYSSTPGAIPLWTPEGI	not soluble
